Assay: soluble fraction after stress (log2 fold change); higher = more stays soluble; pooled small domains, quantitative proteomics
Settings: stress: 75 degC
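Also: 20 min heating vs room temperature control held 20 min.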

Sequence | soluble fraction (log2)
HMSNPPLPFLAKTKVSWTGEQDGDLGFLENEVVKVFHVVDELWWQGSLSRNGAEGIFPRDFVEVISAP | -2.09
HMSNSWSYSEFMKAVESGQVESVTISGQSIKGTSRGGQAFESVLPAFDDKLMDTLLVNDVEVIGEKP | 0.556
HMSNTGDIIRKLREESGVTAKELAHRIGLSASQMSRLESGKRRINSEVLTRIARALEVAPSQLID | -0.439
HMSNTIFGINGPVVTVASKDFSMQEMVYVGNERLVGEVISIDDDLTTIQVYEVTTGLKPGEPVVGTGSAM | -0.34
HMSNVDYSQFKKDTVVEHTKFGRGIIIQTSGDGEDKIAAIAFKGLGVKRFSLAIAAASLKIIGKNDE | -2.49
HMSNYFIEISKDSLARINDEIELDVLRETSDTIIISQEEKTNTISSFIKVLFERQIDILSIQNR | 0.0911
HMSNYYNILGVNKSSTQDEIKKAFRKKAVEHHPDKGGNEATFKKINEAYNTLSDNNKRHMYDMQQSG | 0.119
HMSPDALSNLPIGSEIKFTLWDGTEKRLVKHPAAYQFSRPFWMNLNEYTYVPVNRIPKNYEVIRL | 0.182
HMSPEVEEISIDHLKAGMRILSDLRLPNGTLVAPKGSVVDAHFIKIVENYVISYFGNPFPDRIKVIM | -1.95
HMSPEWTPAEQDAIDKASEGEYGEALQRVLSGDYEPMDIPDALWGVQQVADKDTYSSIQKKIADIGN | 0.383
HMSPIPLPVERAIHKLGSDISLARRRRHISQASLAERMGASLSTVRRMEKGDVRVPIHFFARALHVFG | 0.123
HMSPIQLKYNEYLIYIDEGKINTAEIHGNKITGKLKEGSEYVVTIYPELIASITEKLAENNVQTQLIQ | -0.0829
HMSPLPDRESLGAIEKLISLLGSSEWTVREKATRELGAFGYLARPVLQRELATSGDPEVSRRLERILSNL | -0.545
HMSPLTPEEAEVLRILGDHGDMTVDNIATEGKMSAAAVLRVLGVLSAYGLAVPSGPGRWGSRAA | -0.462
HMSPPPRPSHPEAAGLRHLAFEVDNIDDAVRHLDRLGVPHEPVRTDEYTGRRFLFFTDPDRLPLELYEK | -0.432
HMSPQIDYFDDEELDVYRQIAPEAYTDEQIEVFRDILYTLRPEEVEEWLISLEKREINLPLILRQEAIELI | 0.481
HMSPRQVTAVRSGSPMPVLPGEDWRLYDASGALVARGSGAAPIPKSTGLLRLNSEGLDGLADRWIWVL | -0.553
HMSPSRRENLTAAAKEYFVNTQIRHKTFGNGVIIKRSGNIAAIRFDNGTIKQIDLIAALQAKVLSIL | -2.71
HMSPSTNKTFSFSKENISIGQTVFIKKLNQNATVLTLPNKSNQLQVQFGVITMNVKLEDLALPTN | -2.62
HMSPTSSRAAQARIRKMIESESPLKPISDSQLAARLGEEGISIARRTVAKYREQMNILPASQRRGV | -0.351
HMSPVPRIEIELTSSKEDGSWTWRAVGAREPRGSLDGALLAKPAAVGDVLRVETDQFLDGMTVTAILPPRD | -0.263
HMSQAVEISSVKTQIDGKSYYLHTIKQGQTLYGISKAYGVSVEELTTVNPETSKGLKVGQIIKVPDTKT | 0.395
HMSQDLVVLGDSMLNNALKAFHIDPNAIKKKYWDKLILDYHLKSKEEVLTEIALGKKINVMVAHQLTSIMD | 0.051
HMSQEILSNQSIKDMIELGFEEQTIIDKIQTSTSDFDTTIEELKALKQLGASPTILSAMIKSIKK | 1.01
HMSQLDITEARIVVSGGLGMQGPENFKLLEELAKVLGGAVGASRPVVDNGWREYSNQVGQTGKIVAPELYV | 0.0901
HMSQLETEEAKRIVLKDLLRLYNNYNIIELEEDEFDRFITYLNMPYDFLQKTSDYDLAVSIKRMYASY | -2.28
HMSQNISSTKLIPENIKIGMSVFVIPLQQKGIVQSLPNRSKEVLVQIGNAKINVKINNLKLIED | -0.142
HMSQNTHTIPSREDILGIFRSVNAPLDPQSLGKTLQVHADSMDVLVRRLKAMERDGQLKSDASGVFSLAD | 0.185

Sequence | soluble fraction (log2)
HMSQNVQDVFLNHVRKSKNPVTVFLVNGVKLQGIITWFDNFSVLLRREGHTQLVYKHAISTVMPSGPIQLF | 0.113
HMSQPALSYAFAKAQGVIVTALGDVAEVARRKGSQPQALAEVRRIAGRPLALREVDDAAFDRLLQDHYARS | -0.646
HMSQQMSYSDFVKAVSARQIREAQIQGDKIYATDSTGNRLTIIRLDNDQRLVDDMINNDVNIIGLEE | 0.177
HMSQSDLASAIGARVTIRLREASGGFRDIVGVLQRFGSGYGELINSKGEALTFSESEIAIWREVKA | -2.5
HMSQTELIIVEEEMDGERLDAFLAEQVEQLSRSAVKNLINEGQVLVNGAKQKASYHVREGDEISIEIPEPQ | 0.836
HMSQTPDLQQERANLGDNADARIEAVDLWANKFFPEEHADAILQIGQTAKGIEALEFIMSKV | -0.0375
HMSQVLVRINQDLNIRSGPGAQYDIIAVYRSGAIASVIGTYNNWYKVNFELDSKSYTGWINGTFTSR | -2.48
HMSQYELEDVEKQRLKFKNGDEKALWLLSDIYKDNSQSYEVRLAALRALSESRHPLIIFDIQSSVK | -0.527
HMSRAAQRLFMSQPPLSRHIRQLEDRLGVTLFVRHTRGLTLTEDGQRVLEMVRPLLDLQDKTYAALSQLT | 0.0487
HMSREMIKSELESISGLGKSGIEKLYTHFINIENIKSASLENIRNIPGISYKVADNIYKHFH | -0.238
HMSRLGINTTIEDIKMVGKIIMPLLKQGQSVYQILASHPEIPYSEKTLYSYIEDNIFKDAGIDISVFDL | -1.32
HMSRLLERARDLMAKPGAWLSAEGGAYALRLSPDRRSRISLTLTETEFRALIDQPGLRVRPGGGWSGRA | -3.05
HMSRMGDSIKSLRSRNNMSQDALAEKLNVTRQAISNWENSKTQPDADTLKNLGIIFNVTVDEIINNDF | 0.0824
HMSRQREWIYDYIQSHPDRHMSVEEIYEGLKAENREVSVATVYRNLKILQDENRIASLMLESGKQVFDK | -0.384
HMSRREEALIALAQRVARQVARTKQPVTLEPMPANERRVIHVALRDNPDVETRSSGEGDQRRVTVYPRQ | -0.228
HMSRRIEIELTSSRPDGSWTWRAAGAREPKGVLDGTLLSQGSKPGDVVKAEAEFDIDGITIVSITQ | -0.405
HMSRSKLNRLDKIKKMLIAQTGISIKEFSASLNVSEITIRRDLNLLEEQGFIRLVNGVAIYRM | -1.75
HMSRSLEIDVLVKALLEQDRRKFMLVTDGTADVTVRYNNALPSLFREGQGVVAEGLMDNGKFIATNVLAK | -0.811
HMSRSLLAALEKLRESHTGSLPASVLSSAQRRSLESFAQTTKSVQMRPSGRGVVFAIINPEVVDKHWRELS | -0.959
HMSRSSQMVNFIRLLSQEKKVSVNSIFSSSVQLSDGIIVKINDFYYRVNLSLDQKTYSLVEVS | -0.483
HMSRVKQERLNRFVEAFEAYFRSVHPGEIDVEYLKSDEFGDIFESILHRVMHTASEEKMHRFKKILLNEM | -2.14
HMSSADIPFSRFIDDVEAQRVEKVTIDGVNVTGRYRSDGAAFKTIIPSQYDGLVPILRQNKVDITVKDA | 0.24
HMSSAMDMISRDVRNADSISISTTTYSKKIDLYNFDRNGDIEELHSYSAKNDLGILYNDEPI | -0.35
HMSSANIKLDPLERQATQQIINNIKRKYPNATIENLQEVANDAIATMRQPEFSNYTVDKFVSYFLSM | -0.519
HMSSARKVTVRGVRELPGIFMEKAEILDDGVRFFYRGEMEKLIGALQGLPIRDLTITEPDLEEVFLHFY | -1.48
HMSSASETQYELALQAMRDGDNDAALRSLSTALASGFSDWQRIDEEPLLAALANDVRFQVLRSRWK | 0.0593
HMSSDLVDYLVKYVAIVDNQEIEIADSKIGTAELGTTVSEVAKTVGNYYPKATVLSVKITGRNQEIVFEY | -2.91

Source: the domain aggregation screens of Martell et al. (2025)
